In patent publication US20230002466A1 (ELPIS BIOPHARMACEUTICALS, published 2023):

What was measured:
[1] = molecular target: T1, human IL2Rα (human, UniProt P01589 22-213, limits assumed); test: SPR, IL2Rα captured on Protein A chip, IL2 at 100 nM
T1 construct: also called IL2α; CD25
T1 sequence (looked up): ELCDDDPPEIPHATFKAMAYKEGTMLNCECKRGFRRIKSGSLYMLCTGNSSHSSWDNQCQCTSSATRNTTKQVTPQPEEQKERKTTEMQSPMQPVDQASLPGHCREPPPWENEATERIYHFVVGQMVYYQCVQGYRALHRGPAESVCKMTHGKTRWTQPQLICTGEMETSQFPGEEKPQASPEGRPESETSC
Experimental: The binding kinetics of IL2Rα-reduced binding clones to IL2Rα was assessed utilizing SPR technology with a Biacore T200, software version 2.0. For each cycle, 1 ug/mL of human IL2Rα was captured for 60 seconds at a flow rate of 10 uL/min on flow cell 2 in 1×HBSP buffer on a Protein A sensor chip. 100 nM of each HIS and Flag tag purified IL2 mutant was injected onto both the reference flow cell 1 and IL2Rα captured flow cell 2 for 150 seconds at a flow rate of 30 uL/min followed by washing for 300 seconds. The flow cells were then regenerated with Glycine pH 2.0 for 60 seconds at a flow rate of 30 uL/min. A HBSP+ buffer was included with each sample as a baseline control. The assay was set up in a 96-well format. The kinetics data was analyzed with Biacore T200 evaluation software 3.0. The specific binding response unit was derived from subtraction of binding to reference flow cell 1 from IL2Rα flow cell 2 and subtraction of buffer control. […] Relative response (RU) was determined for each IL2Rα-reduced binding clone (FIG. 4, Table 3).

[2] = molecular target: T1, human IL2Rα; test: IL2Rα binding ELISA with E. coli culture supernatant of the clone; hFc bar as control (Example 2)
[3] = molecular target: T2, human IL2Rβ (human, UniProt P14784 27-239); test: SPR, receptor captured on Protein A chip, E. coli-produced IL2
T2 construct: also called IL2β; CD122
T2 sequence (looked up): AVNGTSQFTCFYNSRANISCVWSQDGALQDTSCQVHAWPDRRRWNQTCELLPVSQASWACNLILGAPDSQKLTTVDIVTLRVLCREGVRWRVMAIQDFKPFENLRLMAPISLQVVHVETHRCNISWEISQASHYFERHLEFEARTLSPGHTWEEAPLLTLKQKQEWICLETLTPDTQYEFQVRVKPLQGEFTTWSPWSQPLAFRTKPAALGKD
Experimental: (§1) The assay was run with Biacore T200 control software version 2.0. For each cycle, 1 μg/mL of human IL2Rβ or IL2Rα was captured for 60 seconds at flow rate of 10 μL/min on flow cell 2 in 1×HBST buffer on Protein A sensor chip. Two-fold serial diluted HIS tag purified engineered IL2 mutant was injected onto both reference flow cell 1 and IL2Rβ or IL2Rα captured flow cell 2 for 150 seconds at flow rate of 30 μL/min followed by washing for 300 seconds. The flow cells were then regenerated with Glycine pH 2 for 40 seconds at a flow rate of 30 μL/mins. Eight concentration points from 0 to 100 nM were assayed for each IL2Rβ agonist clone 96-well plate format. The kinetics data was analyzed with Biacore T200 evaluation software 3000. The specific binding response unit was derived from subtraction of binding to reference flow cell 1 from target flow cell 2.

[4] = molecular target: T1, human IL2Rα; test: as above
Experimental: as §1

[5] = molecular target: T2, human IL2Rβ; test: SPR, receptor captured on Protein A chip, mammalian-produced IL2
Experimental: as §1

[6] = molecular target: T1, human IL2Rα; test: as above
Experimental: as §1

[7] = molecular target: T2, human IL2Rβ; test: ELISA, receptor coated, anti-human Fc HRP
Experimental: (§2) For bivalent Fc-fusion proteins, human IL2Rα, and human IL2Rβ were each immobilized in a 384 well plate at final concentration of 2 μg/mL in 1×PBS in total volume of 25 μL per well. The plate was incubated overnight at 4° C. followed by blocking with 80 μL of superblock per well for 1 hour. The purified engineered IL2 mutant Fc fusion protein at 100 nM was 3-fold serial diluted 12 times. Each dilution was added to IL2Rα and IL2Rβ wells in parallel. The engineered IL2 mutant binding was detected by adding 50 μL of anti-human Fc HRP diluted at 1:5000 in 1×PBST. In between each step, the plate was washed 3 times with 1×PBST in a plate washer. The plate was then developed with 25 μl of TMB substrate for 5 mins and stopped by adding 25 μl of 2N sulfuric acid. The plate was read at OD450 nm Biotek plate reader and the EC50 was analyzed with Prism 8.1 software.

[8] = molecular target: T1, human IL2Rα; test: ELISA, receptor coated, anti-human Fc HRP
Experimental: as §2

B1: EP226 (ligand)
chain: APTSSSTKKTQLQLEHLLLDLQMILNGINNYKNPKLTRMLTAKFYMPKKATELKHLQCLEEELKPLEEVLNLAQSKNFHLGVTDSISNAIVLARELKGSETTFMCEYADETATIVEFLNRWITFSQSIISTLTGSHHHHHH
[1]
  RU (at 100 nM): 3 RU
  Relevant binding to WT IL2 (%): 2.11%
[2]
  binding result: no binding (tested: supernatant, concentration not given)

B2: EP002 (ligand)
chain: APTSSSTKKTQLQLEHLLLDLQMILNGINNYKNPKLTRMLTFKFYMPKKATELKHLQCLEEELKPLEEVLNLAQSKNFHLEPSDVISNINVLVQELKGSETTFMCEYADETATIVEFLNRWITFCQSIISTLT
notes: also called E002; not shown: C-terminal Flag and 6xHis tags
[3]
  Kd: 2.37 nM
  koff: 0.00273 s⁻¹
  kon: 1.15e+06 M⁻¹ s⁻¹
  relative activity IL2Rβ (KD: fold) against WT IL2: 1830 fold
[4]
  Kd: 101 nM
  relative activity IL2Rα (KD: fold) against WT IL2: -10.6 fold

B3: EP004 (ligand)
chain: APTSSSTKKTQLQLEHLLLDLQMILNGINNYKNPKLTRMLTFKFYMPKKATELKHLQCLEEELKPLEEVLNLAQSKNFHLCPTDTIENITVLIQELKGSETTFMCEYADETATIVEFLNRWITFCQSIISTLT
notes: Produced in E. coli or mammalian cells; not shown: C-terminal Flag and 6xHis tags
[3]
  Kd: 0.62 nM
  koff: 0.00189 s⁻¹
  kon: 3.05e+06 M⁻¹ s⁻¹
  relative activity IL2Rβ (KD: fold) against WT IL2: 7010 fold
[4]
  Kd: 40.5 nM
  relative activity IL2Rα (KD: fold) against WT IL2: -4.3 fold
[5]
  Kd: 0.414 nM
  koff: 0.00215 s⁻¹
  kon: 5.18e+06 M⁻¹ s⁻¹
  relative activity IL2Rβ (KD: fold) against WT IL2: 2420 fold
[6]
  Kd: 28.8 nM
  relative activity IL2Rα (KD: fold) against WT IL2: -2.1 fold

B4: EP005 (ligand)
chain: APTSSSTKKTQLQLEHLLLDLQMILNGINNYKNPKLTRMLTFKFYMPKKATELKHLQCLEEELKPLEEVLNLAQSKNFHLTAEDVVTNITVLVQELKGSETTFMCEYADETATIVEFLNRWITFCQSIISTLT
notes: not shown: C-terminal Flag and 6xHis tags
[3]
  Kd: 0.885 nM
  koff: 0.0054 s⁻¹
  kon: 6.1e+06 M⁻¹ s⁻¹
  relative activity IL2Rβ (KD: fold) against WT IL2: 4910 fold
[4]
  Kd: 12.6 nM
  relative activity IL2Rα (KD: fold) against WT IL2: -1.3 fold

B5: EP006 (ligand)
chain: APTSSSTKKTQLQLEHLLLDLQMILNGINNYKNPKLTRMLTFKFYMPKKATELKHLQCLEEELKPLEEVLNLAQSKNFHLGVGDTIDNINVLVKELKGSETTFMCEYADETATIVEFLNRWITFCQSIISTLT
notes: also called EPIM-06; not shown: C-terminal Flag and 6xHis tags
[3]
  Kd: 3.1 nM
  koff: 0.00254 s⁻¹
  kon: 819000 M⁻¹ s⁻¹
  relative activity IL2Rβ (KD: fold) against WT IL2: 1400 fold
[4]
  Kd: 481 nM
  relative activity IL2Rα (KD: fold) against WT IL2: -50.6 fold

B6: EP105 (ligand)
chain: APTSSSTKKTQLQLEHLLLDLQMILNGINNYKNPELTIMLTPKFYMPKKATELKHLQCLEEELKPLEEVLNLAQSKNFHLRPRDLISNINVIVLELKGSETTFMCEYADETATIVEFLNRWITFSQSIISTLT
[1]
  RU (at 100 nM): 2.1 RU
  Relevant binding to WT IL2 (%): 1.48%
[2]
  binding result: no binding (tested: supernatant, concentration not given)

B7: EP108 (ligand)
chain: APTSSSTKKTQLQLEHLLLDLQMILNGINNYKNPKLTRMLTHKFVMPKKATELKHLQCLEEELKPLEEVLNLAQSKNFHLRPRDLISNINVIVLELKGSETTFMCEYADETATIVEFLNRWITFSQSIISTLT
[1]
  RU (at 100 nM): 2.4 RU
  Relevant binding to WT IL2 (%): 1.69%
[2]
  binding result: no binding (tested: supernatant, concentration not given)

B8: EP113 (ligand)
chain: APTSSSTKKTQLQLEHLLLDLQMILNGINNYKNPKLTYMLTRKFYMPKKATELKHLQCLEEELKPLEEVLNLAQSKNFHLRPRDLISNINVIVLELKGSETTFMCEYADETATIVEFLNRWITFSQSIISTLT
[1]
  RU (at 100 nM): 2.6 RU
  Relevant binding to WT IL2 (%): 1.83%
[2]
  binding result: no binding (tested: supernatant, concentration not given)

B9: EP115 (ligand)
chain: APTSSSTKKTQLQLEHLLLDLQMILNGLNNYKNPKLTSMLTFKFSMPKKATELKHLQCLEEELKPLEEVLNLAQSKNFHLRPRDLISNINVIVLELKGSETTFMCEYADETATIVEFLNRWITFSQSIISTLT
[1]
  RU (at 100 nM): 2.4 RU
  Relevant binding to WT IL2 (%): 1.69%
[2]
  binding result: no binding (tested: supernatant, concentration not given)

B10: EP119 (ligand)
chain: APTSSSTKKTQLQLEHLLLDLQMILNGINNYKNPKLTGMLTFKFSMPKKATELKHLQCLEEELKPLEEVLNLAQSKNFHLRPRDLISNINVIVLELKGSETTFMCEYADETATIVEFLNRWITFSQSIISTLT
[1]
  RU (at 100 nM): 2.7 RU
  Relevant binding to WT IL2 (%): 1.9%
[2]
  binding result: no binding (tested: supernatant, concentration not given)

B11: EP122 (ligand)
chain: APTSSSTKKTQLQLEHLLLDLQMILNGINNYKNPKLTVMLTFKFPMPKKATELKHLQCLEEELKPLEEVLNLAQSKNFHLRPRDLISNINVIVLELKGSETTFMCEYADETATIVEFLNRWITFSQSIISTLT
[1]
  RU (at 100 nM): 2.5 RU
  Relevant binding to WT IL2 (%): 1.76%
[2]
  binding result: no binding (tested: supernatant, concentration not given)

B12: EP123 (ligand)
chain: APTSSSTKKTQLQLEHLLLDLQMILNGINNYKNPKLTVMLTFKFFMPKKATELKHLQCLEEELKPLEEVLNLAQSKNFHLRPRDLISNINVIVLELKGSETTFMCEYADETATIVEFLNRWITFSQSIISTLT
[1]
  RU (at 100 nM): 5.3 RU
  Relevant binding to WT IL2 (%): 3.73%
[2]
  binding result: no binding (tested: supernatant, concentration not given)

B13: EP126 (ligand)
chain: APTSSSTKKTQLQLEHLLLDLQMILNGINNYKNPKLTNMLTFKFSMPKKATELKHLQCLEEELKPLEEVLNLAQSKNFHLRPRDLISNINVIVLELKGSETTFMCEYADETATIVEFLNRWITFSQSIISTLT
[1]
  RU (at 100 nM): 2.6 RU
  Relevant binding to WT IL2 (%): 1.83%
[2]
  binding result: no binding (tested: supernatant, concentration not given)

B14: EP080 (Fc fusion)
chain: APTSSSTKETQLQLKHLLLDLQMILNGINNYKNPKLTRMLTFKFYMPKKATELKHLQCLEEELKPLEEVLNLAQSKNFHLKWGDAVSNARVLAGALKGSETTFMCEYADETATIVEFLNRWITFCQSIISTLTEPKSCDKTHTCPLCPAPEAAGGPSVFLFPPKPKDTLMISRTPEVTCVVVDVSHEDPEVKFNWYVDGVEVHNAKTKPREEQYNSTYRVVSVLTVLHQDWLNGKEYKCKVSNKALGAPIEKTISKAKGQPREPQVYTLPPSRDELTKNQVSLTCLVKGFYPSDIAVEWESNGQPENNYKATPPVLDSDGSFFLYSKLTVDKSRWQQGNVFSCSVMHEALHNHYTQKSLSLSPGK
[7]
  EC50: 0.23 nM
  relative activity IL2Rβ (EC50: fold) against EP085: 1280 fold
[8]
  EC50: 0.056 nM
  relative activity IL2Rα (EC50: fold) against EP085: -1.17 fold
